# Earlier results, collected in paper PMC8844171 (Clinical Drug Investigation, 2022).
# Read-outs that look alike come from different tables or passages of the source.
# System: patients with distal MCA or ICA occlusion
molecule,measurement,setting,value
"alteplase: standard thrombolytic treatment for AIS (protein, UniProt P00750 36-562, looked up) Tissue-type plasminogen …: SYQVICRDEKTQMIYQQHQSWLRPVLRSNRVEYCWCNSGRAQCHSVPVKSCSEPRCFNGGTCQQALYFSDFVCQCPEGFAGKCCEIDTRATCYEDQGISYRGTWSTAESGAECTNWNSSALAQKPYSGRRPDAIRLGLGNHNYCRNPDRDSKPWCYVFKAGKYSSEFCSTPACSEGNSDCYFGNGSAYRGTHSLTESGASCLPWNSMILIGKVYTAQNPSAQALGLGKHNYCRNPDGDAKPWCHVLKNRRLTWEYCDVPSCSTCGLRQYSQPQFRIKGGLFADIASHPWQAAIFAKHRRSPGERFLCGGILISSCWILSAAHCFQERFPPHHLTVILGRTYRVVPGEEEQKFEVEKYIVHKEFDDDTYDNDIALLQLKSDSSRCAQESSVVRTVCLPPADLQLPDWTECELSGYGKHEALSPFYSERLKEAHVRLYPSSRCTSQHLLNRTVTDNMLCAGDTRSGGPQANLHDACQGDSGGPLVCLNDGRMTLVGIISWGLGCGQKDVPGVYTKVTNYLDWIRDNMRP",Recanalization rate,patients with ICA occlusion,< 10%
same,Recanalization rate,patients with distal MCA occlusion,approximately 40%
